Publication PMC9258132, “Multi-omics profiling identifies a deregulated FUS-MAP1B axis in ALS/FTD–associated UBQLN2 mutants”

Molecular target: MBP-FUS-His6 WT (UniProt P35637 1-526)
Experiment: EMSA; 5 mM MgCl2, 0.1 mg/ml yeast tRNA; 5 nM RNA, 0-10 uM protein; 20 mM NaPO4 pH 8, 150 mM NaCl, 5% glycerol, 1 mM DTT, 5 mM MgCl2, 0.5 mg/ml BSA, 0.1 mg/ml yeast tRNA, 1 U/ul RNase inhibitor, 20 min RT; 6% native PAGE in 0.5x TBE
Settings: protein: recombinant; tags: N-terminal MBP, C-terminal His6; hairpin with 3' single-stranded tail

Sequence of MBP-FUS-His6 WT (P35637 whole entry): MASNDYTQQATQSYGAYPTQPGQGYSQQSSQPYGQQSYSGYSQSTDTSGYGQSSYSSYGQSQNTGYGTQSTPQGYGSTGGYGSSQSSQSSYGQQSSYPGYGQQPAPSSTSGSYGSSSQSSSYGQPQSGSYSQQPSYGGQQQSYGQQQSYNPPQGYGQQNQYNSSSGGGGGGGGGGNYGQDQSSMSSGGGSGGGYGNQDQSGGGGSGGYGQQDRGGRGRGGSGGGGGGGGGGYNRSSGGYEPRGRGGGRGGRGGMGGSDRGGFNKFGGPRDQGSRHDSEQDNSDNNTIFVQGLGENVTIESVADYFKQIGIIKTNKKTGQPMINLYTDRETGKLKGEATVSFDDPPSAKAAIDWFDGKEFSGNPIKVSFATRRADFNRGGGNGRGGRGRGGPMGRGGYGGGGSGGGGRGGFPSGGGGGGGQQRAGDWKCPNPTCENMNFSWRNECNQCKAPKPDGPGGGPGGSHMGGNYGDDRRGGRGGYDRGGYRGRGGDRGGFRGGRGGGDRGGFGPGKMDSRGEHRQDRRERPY

Q: Does GGAUCUUUAACUACUCAAGAUACUGAACAUGACAUGGUA (structured_RNA) [SON pre-mRNA stem loop with downstream GGU motif] bind?
A: binds
